Source: article PMC8163065, “Involvement of the R2R3-MYB transcription factor MYB21 and its homologs in regulating flavonol accumulation in Arabidopsis stamen”

T1: GST-MYB21 (Arabidopsis thaliana, UniProt Q9LK95 1-226)
T1 sequence: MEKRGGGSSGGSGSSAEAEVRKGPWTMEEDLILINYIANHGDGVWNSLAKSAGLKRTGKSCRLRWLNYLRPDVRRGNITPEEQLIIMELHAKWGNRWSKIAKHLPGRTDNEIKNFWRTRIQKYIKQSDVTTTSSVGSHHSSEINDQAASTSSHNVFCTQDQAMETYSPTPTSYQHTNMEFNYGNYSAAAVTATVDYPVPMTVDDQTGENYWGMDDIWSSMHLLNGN

B1: GARE1 FLS1 promoter probe (dsDNA)
DNA 1: AGCCAGTGGCGATAAGCTCTCACCTTTTTTTTGTTATTTTATATCTTAAG
DNA 2: CTTAAGATATAAAATAACAAAAAAAAGGTGAGAGCTTATCGCCACTGGCT
B2: GARE2 FLS1 promoter probe (dsDNA)
DNA 1: AGCCAGTGGCGATAAGCTGGGCCTTGTCTTGTTATATGGGCCTTGAATC
DNA 2: GATTCAAGGCCCATATAACAAGACAAGGCCCAGCTTATCGCCACTGGCT

Molecular target: T1, GST-MYB21
Assay: EMSA; LightShift Chemiluminescent EMSA kit (Thermo), per manufacturer; buffer, salt, pH and temperature not stated
Settings: protein: recombinant; tags: N-terminal GST (pGEX-4T-1); label: biotin (via primer S18, 5' tail); blunt

| Binder | binding result |
| --- | --- |
| B1 | binds |
| B2 | binds |
